Experimental data from patent US12037395 (IMMVIRA, dated 2024).

Assays:
[1] = biological target: T1, biotin-labeled human PD-1 Fc protein (human, biotin-labeled (sites not given)); experiment: competition ELISA: blocks biotin PD-1-Fc binding to coated PD-L1-Fc
T1 construct: also called PD-1-Fc-biotin
Procedure: The next day, plates were washed with wash buffer (PBS+0.05% Tween-20, PBST), and blocked with 5% non-fatty milk in PBST for 2 hours at 37° C. Plates were then washed again using wash buffer.
After incubation at 37° C. for 40 minutes, plates were washed for 4 times using wash buffer. […] Plates were washed again using wash buffer. Finally, TMB was added and the reaction was stopped using 1M H_2SO_4, and the absorbance was read at 450 nm. Data were analyzed using Graphpad Prism software and $IC50$ values were reported.

[2] = biological target: human PD-1 on PD-1 Effector Cell Line (Genscript, GS-J2/PD-1) (human, UniProt Q15116 25-288); experiment: cell-based or functional assay
[3] = biological target: T2, recombinant human PD-1-his (Sino biological, #10377-H08H) (human, UniProt Q15116 25-167); experiment: SPR (Biacore T200), antibody captured, antigen flowed
T2 construct: Bought protein; also called Human PD-1-his protein; not shown: his tag
Description: (§1) Briefly, goat […] (GE healthcare, Cat #BR100839, Human Antibody Capture Kit) was covalently linked to a CM5 chip (carboxy methyl dextran coated chip) via primary amines, using a standard amine coupling kit (GE healthcare, Pittsburgh, PA, USA) provided by Biacore. Unreacted moieties on the biosensor surface were blocked with ethanolamine. […] Then, recombinant human PD-1-his (Sino biological, #10377-H08H) or cynomolgus monkey PD-1-his protein (Acro biosystems, #PD-1-C5223) in HBS EP buffer (provided by Biacore) was flowed onto the chip at a flow rate of 30 μL/min. The antigen-antibody association kinetics was followed for 2 minutes and the dissociation kinetics was followed for 10 minutes. The association and dissociation curves were fit to a 1:1 *Langmuir* binding model using BIA evaluation software.

[4] = biological target: T3, cynomolgus monkey PD-1-his protein (Acro biosystems, #PD-1-C5223) (cynomolgus monkey, UniProt B0LAJ3 25-170); experiment: as above
T3 construct: Bought protein; also called Cynomolgus PD-1; Cynomolgus PD1
Description: as §1

[5] = biological target: T1, biotin-labeled human PD-1 Fc protein; experiment: competition ELISA: blocks biotin PD-1-Fc binding to coated Nivolumab (competitor)
Procedure: The next day, plates were washed with wash buffer, and blocked with 5% non-fatty milk in PBST for 2 hours at 37° C. […] Plates were finally washed using wash buffer. TMB was added and the reaction was stopped using 1M H_2SO_4, and the absorbance was read at 450 nm. Data were analyzed using Graphpad Prism software and $IC50$ values were reported.

[6] = biological target: T1, biotin-labeled human PD-1 Fc protein; experiment: capture ELISA: antibody captured by anti-IgG Fc, biotin PD-1-Fc 60 nM
[7] = biological target: T2, recombinant human PD-1-his (Sino …); experiment: SPR (Biacore) as in Example 2

Row | Binder | IC50 [1] [nM] | Reporter Activation (EC50, nM) human PD-1 cell (NFAT-luc)/human PD-L1 cell [2] [nM] | Kd [3] [nM] | koff [3] [s⁻¹] | kon [3] [M⁻¹ s⁻¹] | Kd [4] [nM] | koff [4] [s⁻¹] | kon [4] [M⁻¹ s⁻¹] | IC50 [5] [nM] | EC50 [6] [nM] | Kd [7] [nM]
1 | mouse anti-PD-1 monoclonal antibody D1F2 (antibody, mouse IgG1, kappa, V domains shown, Purified from hybridoma; Constant regions tied only generically to 'mouse antibodies') VH: EVMLVESGGGLVKPGGSLKLSCAASGFTFSSYTMSWVRQTPEKRLEWVATISGGGSNIYYPDSVEGRFTVSRDNARNTLYLHMSSLRSEDTALYYCVLNYAYAMDYWGQGTSVTVSS VL: DIQMTQTTSSLSASLGDRVTISCRASQDISNFLNWYQQKPDGTVKLLIYYTSRLQSGVPSRFSGTGSGTDYSLTISNLEQEDLATYFCQQGSSLPWTFGGGTKLEIKR | 0.21 | 7.35 | 1.05 | 0.000203 | 194000 | 31.7 | 0.00632 | 200000 | 1.4 | 0.19 | 
2 | mouse anti-PD-1 monoclonal antibody C1C5 (antibody, mouse IgG1, kappa, V domains shown, Purified from hybridoma; Constant regions tied only generically to 'mouse antibodies') VH: QIQLVQSGPELKKPGETVKISCKASGYTFTNYGINWVKQAPGKGLKWMGWINTYSGEPTYSDDFKGRFAFSLETSASTAYLQINNLKNEDTSTYFCVRQGDFDYEDAMDYWGQGTSVTVSS VL: DVLMTQSPLSLPVSLGDQASISCRSSQSIVHSNGHIYLEWYLQKPGQSPKLLIYKVSKRFSGVPDRFSGSGSGTDFTLKISRVEAEDLGVYYCFQGSHGTFGGGTKLEIKR | 0.23 | 23.4 | 0.88 | 0.000203 | 231000 | 14.6 | 0.0047 | 322000 | 1.34 | 0.16 | 
3 | humanized anti-PD-1 antibody huC1E1-V1 (antibody, human IgG1, kappa, Human IgG1/kappa, expressed in 293F cells) heavy: not shown light: EIVLTQSPATLSLSPGERATLSCRASKSVDDSGISFMHWFQQKPGQPPRLLIYAASNQGSGVPARFSGSGSGTDFTLTISSLEPEDFAVYFCHQTKEVPWTFGQGTKVEIKRTVAAPSVFIFPPSDEQLKSGTASVVCLLNNFYPREAKVQWKVDNALQSGNSQESVTEQDSKDSTYSLSSTLTLSKADYEKHKVYACEVTHQGLSSPVTKSFNRGEC |  |  |  |  |  |  |  |  |  |  | 3.88
4 | humanized anti-PD-1 antibody huC1E1-V2 (antibody, human IgG1, kappa, Human IgG1/kappa, expressed in 293F cells) heavy: not shown light: EIVLTQSPATLSLSPGERATLSCRASKSVDDSGISFMHWFQQKPGQPPRLLIYAASNQGSGVPARFSGSGSGTDFTLTISSLEPEDFAVYFCHQTKEVPWTFGQGTKVEIKRTVAAPSVFIFPPSDEQLKSGTASVVCLLNNFYPREAKVQWKVDNALQSGNSQESVTEQDSKDSTYSLSSTLTLSKADYEKHKVYACEVTHQGLSSPVTKSFNRGEC |  |  |  |  |  |  |  |  |  |  | 2.49
5 | mouse anti-PD-1 monoclonal antibody C1F5 (antibody, mouse IgG1, kappa, V domains shown, Purified from hybridoma; Constant regions tied only generically to 'mouse antibodies') VH: EVQLVESGGGLVKPGGSLKLSCAASGFAFSSYDMSWVRQTPEKRLEWVAYITGGGSSSFYPDTVKGRFTISRDNSKNTLYLQMTSLRSEDTAMYYCASPYLSYFDYWGQGTTLTVSS VL: DIVLTQSPATLSVTPGDSVSLSCRASQSISNNLHWYQQKSHESPRLLIKYGSQSMSGIPSRFSGSGSGTDFTLVINSVETEDFGMYFCQQSNSWPLTFGAGTKLELKR | 0.21 | 7.58 | 0.372 | 0.000131 | 353000 | 18.1 | 0.00249 | 138000 | 0.87 | 0.16 | 
6 | mouse anti-PD-1 monoclonal antibody C1E1 (antibody, mouse IgG1, kappa, Purified from hybridoma; also called clone C1E1) heavy: EVMLVESGGGLVKPGGSLKLSCAASGFTFSSYLMSWVRQTPEKRLEWVATISGGGGDTYFPDSVKGRFTISRDNVKNNLYLQMSSLRSEDTALYYCVRFGGAGYYWYFDVWGAGTTVTVSSAKTTPPSVYPLAPGSAAQTNSMVTLGCLVKGYFPEPVTVTWNSGSLSSGVHTFPAVLQSDLYTLSSSVTVPSSTWPSETVTCNVAHPASSTKVDKKIVPRDCGCKPCICTVPEVSSVFIFPPKPKDVLTITLTPKVTCVVVDISKDDPEVQFSWFVDDVEVHTAQTQPREEQFNSTFRSVSELPIMHQDWLNGKEFKCRVNSAAFPAPIEKTISKTKGRPKAPQVYTIPPPKEQMAKDKVSLTCMITDFFPEDITVEWQWNGQPAENYKNTQPIMDTDGSYFVYSKLNVQKSNWEAGNTFTCSVLHEGLHNHHTEKSLSHSPGK light: not shown | 0.26 | 9.11 | 0.342 | 5.88e-05 | 172000 | 3.9 |  | 203000 | 1.1 | 0.16 | 
7 | mouse anti-PD-1 monoclonal antibody D1A1 (antibody, mouse IgG1, kappa, V domains shown, Purified from hybridoma; Constant regions tied only generically to 'mouse antibodies') VH: EVMLVESGGGLVKPGGSLKLSCAASGFTFSNYAMSWVRQTPEKRLEWVATISGGGGNIYYPDSVKGRFTISRDNARNTLYLQMSSLRSEDTALYYCASPYANYVWYLDVWGAGTTVTVSS VL: DIQMTQTTSSLSASLGDRVTISCRASQDISNYLNWYQQKPDGTVKLLIYYTSRLHSGVPSRFSGSGSGTDFSLTISNLEEEDIATYFCQQSNALPWTFGGGTKLEIKR | 0.22 | 9.13 | 2.06 | 0.000386 | 188000 | 11.3 | 0.00236 | 210000 | 1.28 | 0.2 | 
8 | mouse anti-PD-1 monoclonal antibody D1F1 (antibody, mouse IgG1, kappa, V domains shown, Purified from hybridoma; Constant regions tied only generically to 'mouse antibodies') VH: EVMLVESGGGLVKPGGSLKLSCAASGFTFSSNTMSWVRQTPEKRLEWVAAISGGGVNTYYPDSVKGRFTISRDNARNTLYLQMSSLRSEDTALYYCARHGNYNYYGMDYWGQGTSVTVSS VL: not shown | 0.2 | 10.8 | 2.83 | 0.000577 | 204000 | 112 | 0.00292 | 26000 | 2.13 | 0.24 | 
9 | mouse anti-PD-1 monoclonal antibody D2C2 (antibody, mouse IgG1, kappa, V domains shown, Purified from hybridoma; Constant regions tied only generically to 'mouse antibodies') VH: EVMLVESGGGLVKPGGSLKLSCAASGFTFSSNTMSWVRQTPEKRLEWVAAISGGGVDTYYPDSVKGRFTISRDNARNTLYLQMSSLRSEDTALYYCARHGNYNYYGMDYWGQGTSVTVSS VL: not shown | 0.21 | 14.7 | 1.77 | 0.000307 | 173000 | 116 | 0.00238 | 20600 | 1.89 | 0.2 | 
10 | mouse anti-PD-1 monoclonal antibody C1E2 (antibody, mouse IgG1, kappa, V domains shown, Purified from hybridoma; Constant regions tied only generically to 'mouse antibodies') VH: QVQLQQSGAELVRPGTSVKISCKASGYTFTNYWLGWVKQRPGHGLEWIGDIYPGGGYTNYNENFKGKATLTADTSSSTAYMQLSSLTSEDSAVFFCARGYGTNYWYFDVWGAGTTVTVSS VL: SIVMTQTPKFLLVSAGDRVTITCKASQSVSNDVAWYQQKPGQSPKLLIYYAFHRYTGVPDRFTGSGYGTDFTFTISTVQAEDLAVYFCQQDYSSPYTFGGGTKLEIKR | 0.25 | 11.1 | 2.88 | 0.000442 | 153000 | 12.5 | 0.00298 | 238000 | 1.49 | 0.2 | 
11 | mouse anti-PD-1 monoclonal antibody C1A1 (antibody, mouse IgG1, kappa, V domains shown, Purified from hybridoma; Constant regions tied only generically to 'mouse antibodies') VH: QVTLKESGPGILKPSQTLSLTCSFSGFSLSTSGMGVGWIRQPSGKGLEWLAHIWWDDDKFYNPSLKSQLTISKDTSRNQVFLKITSVDTADTATYYCARTGGFITTGYWYFDVWGAGTTVTVSS VL: DIQMTQTTSSLSASLGDRVTISCRASQDISNYLIWYQQKTDGTLKLLIYYTSRLHSGVPSRFSGSGSGTDYSLTISNLEQEDIATYFCQQHKTLPWTFGGGTKLEIKR | 0.27 | 12.1 | 1.13 | 0.000189 | 168000 | 9.5 | 0.00331 | 348000 | 1.4 | 0.18 | 
12 | mouse anti-PD-1 monoclonal antibody C1F4 (antibody, mouse IgG1, kappa, V domains shown, Purified from hybridoma; Constant regions tied only generically to 'mouse antibodies') VH: QVQLQQSGAELVRPGVSVKISCKGSGYKFTDYAMHWVRQSHAKSLEWIGIISTYSGDVSFNQNFKGKATMTVDKSSSTAYMELARLTSEDSAIYYCSRLGITAGFAYWGQGTLVTVSA VL: DIVMTQSQKFMSTSVGDRVTITCKASQNVRTAVAWYQQKPGQSPKALIYLASNRHTGVPDRFTGSGSGTDFTLTISNVQSKDLADYFCLQHWNYPYTFGGGTKLEIKR | 0.43 | 13.2 | 2.3 | 0.000359 | 156000 | 17.3 | 0.00521 | 301000 | 2.26 | 0.25 | 
